Measured values from PMC12220977 (2025).
Where a chain is given by its changes, count along the chain named.

B1: PAI-1WT (wild-type plasminogen activator inhibitor 1, recombinant) (natural protein)
chain: VHHPPSYVAHLASDFGVRVFQQVAQASKDRNVVFSPYGVASVLAMLQLTTGGETQQQIQAAMGFKIDDKGMAPALRHLYKELMGPWNKDEISTTDAIFVQRDLKLVQGFMPHFFRLFRSTVKQVDFSEVERARFIINDWVKTHTKGMISHLLGTGAVDQLTRLVLVNALYFNGQWKTPFPDSSTHRRLFHKSDGSTVSVPMMAQTNKFNYTEFTTPDGHYYDILELPYHGDTLSMFIAAPYEKEVPLSALTNILSAQLISHWKGNMTRLPRLLVLPKFSLETEVDLRKPLENLGMTDMFRQFQADFTSLSDQEPLHVALALQKVKIEVNESGTVASSSTAVIVSARMAPEEIIIDRPFLFVVRHNPTGTVLFMGQVMEP
B2: PAI-1AK (PAI-1 Arg101Ala, Gln123Lys) (natural protein)
chain: B1 chain with R101A, Q123K

Experiments:
[1] = target: PAI-1WT (wild-type plasminogen activator inhibitor 1, recombinant) (UniProt P05121); assay: SPR; competition: 250 nM PAI-1WT preincubated with increasing concentrations of SMB, then flowed over immobilised full-length SorLA; HBS-P buffer with 1.0 mM CaCl2, pH 7.4, 25°C
[2] = target: T1, SorLA VPS10 domain (vacuolar protein sorting 10 domain); assay: SPR
T1 chain: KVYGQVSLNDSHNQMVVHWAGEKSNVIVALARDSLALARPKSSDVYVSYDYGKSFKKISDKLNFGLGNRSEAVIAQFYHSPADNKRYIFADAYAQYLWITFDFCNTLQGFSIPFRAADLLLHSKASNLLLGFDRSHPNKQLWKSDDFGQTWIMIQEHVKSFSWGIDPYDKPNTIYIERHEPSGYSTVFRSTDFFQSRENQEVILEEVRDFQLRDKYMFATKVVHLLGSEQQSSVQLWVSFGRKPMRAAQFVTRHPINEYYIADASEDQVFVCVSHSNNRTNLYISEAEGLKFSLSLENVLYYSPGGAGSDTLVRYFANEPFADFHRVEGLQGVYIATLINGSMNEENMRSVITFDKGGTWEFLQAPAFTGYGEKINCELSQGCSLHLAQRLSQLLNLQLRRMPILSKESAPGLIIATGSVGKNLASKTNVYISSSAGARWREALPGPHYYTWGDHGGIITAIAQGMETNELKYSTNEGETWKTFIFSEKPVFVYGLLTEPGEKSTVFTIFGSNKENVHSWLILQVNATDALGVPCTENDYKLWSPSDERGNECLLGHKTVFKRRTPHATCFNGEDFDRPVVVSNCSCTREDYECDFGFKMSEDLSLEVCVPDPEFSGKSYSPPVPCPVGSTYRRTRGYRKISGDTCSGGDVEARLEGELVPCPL

[3] = target: T2, Soluble full-length SorLA (sortilin-related receptor 1) (UniProt Q92673 82-2137); assay: SPR
[4] = target: T2, Soluble full-length SorLA …; assay: SPR; SorLA or its VPS10 domain immobilised on a CM5 chip (5,000 and 2,500 RU); PAI-1 flowed over; HBS-P buffer with 1.0 mM CaCl2, pH 7.4, 25°C, 20 uL/min; equilibrium analysis (Req/Rmax), single binding site

IC50 [1] | Kd [2] | Kd [3] | Kd [4] | Molecule
464 nM |  |  |  | Somatomedin B (SMB) domain of vitronectin (VTN) (from UniProt P04004 20-63) (domain or fragment)
 | 1590 nM | 102 nM | 126 nM | B1
 |  | 491 nM | 540 nM | B2
